Data taken from the supplement of paper PMC10567573.

B1: ZNF193 (parent)
chain: QKRYHCKECGKVFSQSAGLIQHQR

Variants of: B1
Experiment: protein stability index of a GFP-peptide fusion (GPS, HEK-293T) (PSI 1-6); higher = more stable
Settings: c terminus: a fixed tail appended
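Note: lentivirally expressed fusions sorted by FACS into six bins by GFP to DsRed ratio, PSI derived from sequencing read proportions per bin multiplied by bin number.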

Point of comparison: QKRYHCKECGKVFSQSCGLIQHQR, protein stability index 2.45. Against it:
- QKRYHCKECGKVFRQSAGLIQHQR — higher, 3.03
- QKRYHCKECGKVFIQSAGLIQHQR — higher, 2.64
- QKRYHCKECGKVFAQSAGLIQHQR — higher, 3.47
- QKRYHCKECGKVFMQSAGLIQHQR — higher, 2.93
- QKRYHCKECGKVFKQSAGLIQHQR — higher, 3.23
- QKRYHCKECGKVFNQSAGLIQHQR — higher, 2.78
- QKRYHCKECGKVFEQSAGLIQHQR — higher, 3.77
- QKRYHCKECGKVFCQSAGLIQHQR — higher, 2.58
- QKRYHCKECGKVFLQSAGLIQHQR — higher, 3.16
- QKRYHCKECGKVFFQSAGLIQHQR — higher, 2.68
- QKRYHCKECGKVFYQSAGLIQHQR — higher, 3.25
- QKRYHCKECGKVFTQSAGLIQHQR — higher, 3.06
- QKRYHCKECGKVFPQSAGLIQHQR — higher, 2.72
- QKRYHCKECGKVFGQSAGLIQHQR — higher, 2.54
- QKRYHCKECGKVFDQSAGLIQHQR — higher, 3.47
- QKRYHCKECGKVFVQSAGLIQHQR — higher, 2.53
- QKRYHCKECGKVFQQSAGLIQHQR — higher, 2.86
- QKRYHCKECGKVFHQSAGLIQHQR — higher, 2.98
- QKRYHCKECGKVFWQSAGLIQHQR — lower, 2.08
- QKRYHCKECGKVFSYSAGLIQHQR — higher, 2.73
- QKRYHCKECGKVFSSSAGLIQHQR — higher, 4.11
- QKRYHCKECGKVFSRSAGLIQHQR — higher, 3.08
- QKRYHCKECGKVFSPSAGLIQHQR — lower, 1.58
- QKRYHCKECGKVFSDSAGLIQHQR — higher, 4.51
- QKRYHCKECGKVFSTSAGLIQHQR — higher, 4.01
- QKRYHCKECGKVFSMSAGLIQHQR — lower, 2.06
- QKRYHCKECGKVFSGSAGLIQHQR — higher, 2.8
- QKRYHCKECGKVFSCSAGLIQHQR — higher, 3.93
- QKRYHCKECGKVFSLSAGLIQHQR — lower, 1.99
- QKRYHCKECGKVFSISAGLIQHQR — lower, 1.92
- QKRYHCKECGKVFSVSAGLIQHQR — lower, 2.16
- QKRYHCKECGKVFSKSAGLIQHQR — higher, 3.45
- QKRYHCKECGKVFSFSAGLIQHQR — lower, 2.28
- QKRYHCKECGKVFSASAGLIQHQR — higher, 2.83
- QKRYHCKECGKVFSWSAGLIQHQR — lower, 2.06
- QKRYHCKECGKVFSHSAGLIQHQR — higher, 2.91
- QKRYHCKECGKVFSNSAGLIQHQR — higher, 4.24
- QKRYHCKECGKVFSESAGLIQHQR — higher, 3.85
- QKRYHCKECGEVFSQSAGLIQHQR — higher, 3.1
- QKRYHCKECGMVFSQSAGLIQHQR — higher, 3.23
- QKRYHCKECGLVFSQSAGLIQHQR — higher, 2.47
- QKRYHCKECGHVFSQSAGLIQHQR — lower, 2.34
- QKRYHCKECGIVFSQSAGLIQHQR — lower, 2.32
- QKRYHCKECGDVFSQSAGLIQHQR — lower, 1.88
- QKRYHCKECGVVFSQSAGLIQHQR — lower, 2.18
- QKRYHCKECGFVFSQSAGLIQHQR — lower, 1.82
- QKRYHCKECGPVFSQSAGLIQHQR — lower, 2.12
- QKRYHCKECGQVFSQSAGLIQHQR — higher, 3.04
- QKRYHCKECGYVFSQSAGLIQHQR — lower, 1.7
- QKRYHCKECGNVFSQSAGLIQHQR — lower, 1.66
- QKRYHCKECGRVFSQSAGLIQHQR — lower, 2.01
- QKRYHCKECGGVFSQSAGLIQHQR — lower, 1.83
- QKRYHCKECGTVFSQSAGLIQHQR — higher, 2.64
- QKRYHCKECGSVFSQSAGLIQHQR — lower, 2.37
- QKRYHCKECGCVFSQSAGLIQHQR — lower, 2.3
- QKRYHCKECGWVFSQSAGLIQHQR — lower, 2.32
- QKRYHCKECGAVFSQSAGLIQHQR — higher, 3.19
- QKRYHCKECGKVFSQSFGLIQHQR — lower, 2.27
- QKRYHCKECGKVFSQSEGLIQHQR — higher, 3.51
- QKRYHCKECGKVFSQSDGLIQHQR — higher, 3.42
- QKRYHCWECGKVFSQSAGLIQHQR — higher, 2.49
- QKRYHCTECGKVFSQSAGLIQHQR — higher, 2.74
- QKRYHCVECGKVFSQSAGLIQHQR — higher, 2.99
- QKRYHCPECGKVFSQSAGLIQHQR — higher, 3.33
- QKRYHCRECGKVFSQSAGLIQHQR — higher, 2.66
- QKRYHCYECGKVFSQSAGLIQHQR — higher, 3.1
- QKRYHCLECGKVFSQSAGLIQHQR — higher, 2.95
- QKRYHCNECGKVFSQSAGLIQHQR — higher, 3.23
- QKRYHCQECGKVFSQSAGLIQHQR — higher, 3.15
- QKRYHCIECGKVFSQSAGLIQHQR — higher, 2.69
- QKRYHCSECGKVFSQSAGLIQHQR — higher, 3.35
- QKRYHCHECGKVFSQSAGLIQHQR — higher, 2.94
- QKRYHCMECGKVFSQSAGLIQHQR — higher, 2.6
- QKRYHCKECGKVFSQDAGLIQHQR — higher, 2.47
- QKRYHCKECGKVFSQPAGLIQHQR — higher, 3.44
- QKRYHCKECGKVFSQGAGLIQHQR — higher, 2.7
- QKRYHCKECGKVFSQMAGLIQHQR — higher, 3.72
- QKRYHCKECGKVFSQEAGLIQHQR — higher, 4.39
- QKRYHCKECGKVFSQLAGLIQHQR — higher, 3.59
- QKRYHCKECGKVFSQVAGLIQHQR — higher, 2.62
- QKRYHCKECGKVFSQHAGLIQHQR — higher, 3.77
- QKRYHCKECGKVFSQTAGLIQHQR — lower, 2.27
- QKRYHCKECGKVFSQWAGLIQHQR — higher, 2.99
- QKRYHCKECGKVFSQRAGLIQHQR — higher, 3.97
- QKRYHCKECGKVFSQAAGLIQHQR — higher, 3.71
- QKRYHCKECGKVFSQIAGLIQHQR — higher, 2.98
- QKRYHCKECGKVFSQNAGLIQHQR — higher, 3.11
- QKRYHCKECGKVFSQKAGLIQHQR — higher, 3.53
- QKRYHCKECGKVFSQCAGLIQHQR — higher, 2.9
- QKRYHCKECGKVFSQYAGLIQHQR — higher, 3.8
- QKRYHCKECGKVFSQFAGLIQHQR — higher, 2.86
- QKRYHCKECGKVFSQQAGLIQHQR — higher, 3.88
- QKRYHCKECGKQFSQSAGLIQHQR — higher, 2.82
- QKRYHCKECGKYFSQSAGLIQHQR — higher, 2.75
- QKRYHCKECGKTFSQSAGLIQHQR — higher, 3.52
- QKRYHCKECGKGFSQSAGLIQHQR — higher, 2.77
- QKRYHCKECGKSFSQSAGLIQHQR — higher, 3.27
- QKRYHCKECGKDFSQSAGLIQHQR — higher, 3.27
- QKRYHCKECGKFFSQSAGLIQHQR — higher, 2.67
- QKRYHCKECGKHFSQSAGLIQHQR — higher, 2.82
- QKRYHCKECGKKFSQSAGLIQHQR — higher, 3.2
- QKRYHCKECGKWFSQSAGLIQHQR — higher, 2.82
- QKRYHCKECGKCFSQSAGLIQHQR — higher, 2.81
- QKRYHCKECGKRFSQSAGLIQHQR — higher, 3.33
- QKRYHCKECGKIFSQSAGLIQHQR — higher, 2.76
- QKRYHCKECGKAFSQSAGLIQHQR — lower, 2.43
- QKRYHCKECGKNFSQSAGLIQHQR — higher, 2.78
- QKRYHCKECGKPFSQSAGLIQHQR — lower, 2.17
- QKRYHCKECGKMFSQSAGLIQHQR — higher, 2.6
- QKRYHCKECGKLFSQSAGLIQHQR — lower, 2.25
- QKRYHCKECGKEFSQSAGLIQHQR — higher, 3.23
- QKRYHCKECGKVGSQSAGLIQHQR — lower, 1.87
- QKRYHCKECGKVWSQSAGLIQHQR — lower, 2.03
- QKRYHCKECGKVQSQSAGLIQHQR — lower, 2.29
- QKRYHCKECGKVRSQSAGLIQHQR — lower, 2.17
- QKRYHCKECGKVSSQSAGLIQHQR — lower, 2.12
- QKRYHCKECGKVHSQSAGLIQHQR — higher, 3.12
- QKRYHCKECGKVVSQSAGLIQHQR — lower, 2.05
- QKRYHCKECGKVCSQSAGLIQHQR — lower, 2.15
- QKRYHCKECGKVYSQSAGLIQHQR — lower, 1.99
- QKRYHCKECGKVASQSAGLIQHQR — lower, 1.81
- QKRYHCKECGKVTSQSAGLIQHQR — lower, 1.91
- QKRYHCKECGKVMSQSAGLIQHQR — lower, 1.82
- QKRYHCKECGKVISQSAGLIQHQR — lower, 2.42
- QKRYHCKECGKVLSQSAGLIQHQR — higher, 2.5
- QKRYHCKECGKVKSQSAGLIQHQR — lower, 2.25
- QKRYHCKECGKVESQSAGLIQHQR — lower, 2.42
- QKRYHCKECGKVDSQSAGLIQHQR — lower, 1.72
- QKRYHCKECGKVNSQSAGLIQHQR — lower, 1.67
- QKRYHCKECGKVPSQSAGLIQHQR — lower, 2.39
- QKRYHCKEEGKVFSQSAGLIQHQR — higher, 3.64
- QKRYHCKEVGKVFSQSAGLIQHQR — higher, 3.07
- QKRYHCKEDGKVFSQSAGLIQHQR — higher, 3.97
- QKRYHCKEMGKVFSQSAGLIQHQR — higher, 2.63
- QKRYHCKERGKVFSQSAGLIQHQR — higher, 3.38
- QKRYHCKEYGKVFSQSAGLIQHQR — higher, 2.7
- QKRYHCKEWGKVFSQSAGLIQHQR — higher, 2.58
- QKRYHCKETGKVFSQSAGLIQHQR — higher, 3.27
- QKRYHCKEHGKVFSQSAGLIQHQR — higher, 3.13
- QKRYHCKEFGKVFSQSAGLIQHQR — lower, 2.17
- QKRYHCKELGKVFSQSAGLIQHQR — higher, 2.52
- QKRYHCKEGGKVFSQSAGLIQHQR — higher, 3.2
- QKRYHCKEQGKVFSQSAGLIQHQR — higher, 3.19
- QKRYHCKEAGKVFSQSAGLIQHQR — higher, 3.45
- QKRYHCKENGKVFSQSAGLIQHQR — higher, 3.17
- QKRYHCKEKGKVFSQSAGLIQHQR — higher, 3.64
- QKRYHCKEIGKVFSQSAGLIQHQR — higher, 2.83
- QKRYHCKESGKVFSQSAGLIQHQR — higher, 3.11
- QKRYHCKEPGKVFSQSAGLIQHQR — higher, 3.04
- QKRYHCKECAKVFSQSAGLIQHQR — lower, 1.96
- QKRYHCKECFKVFSQSAGLIQHQR — lower, 2.03
- QKRYHCKECYKVFSQSAGLIQHQR — lower, 1.67
- QKRYHCKECCKVFSQSAGLIQHQR — lower, 1.83
- QKRYHCKECHKVFSQSAGLIQHQR — lower, 1.84
- QKRYHCKECMKVFSQSAGLIQHQR — lower, 2.12
- QKRYHCKECRKVFSQSAGLIQHQR — lower, 2
- QKRYHCKECQKVFSQSAGLIQHQR — lower, 2.29
- QKRYHCKECSKVFSQSAGLIQHQR — lower, 2.11
- QKRYHCKECIKVFSQSAGLIQHQR — lower, 1.51
- QKRYHCKECNKVFSQSAGLIQHQR — higher, 2.5
- QKRYHCKECWKVFSQSAGLIQHQR — lower, 2.02
- QKRYHCKECTKVFSQSAGLIQHQR — lower, 1.83
- QKRYHCKECPKVFSQSAGLIQHQR — lower, 2.33
- QKRYHCKECVKVFSQSAGLIQHQR — lower, 1.46
- QKRYHCKECDKVFSQSAGLIQHQR — lower, 1.79
- QKRYHCKECLKVFSQSAGLIQHQR — lower, 1.95
- QKRYHCKECEKVFSQSAGLIQHQR — lower, 2.01
- QKRYHCKECKKVFSQSAGLIQHQR — lower, 1.98
- QKRYHCKICGKVFSQSAGLIQHQR — higher, 2.98
- QKRYHCKCCGKVFSQSAGLIQHQR — higher, 4.26
- QKRYHCKNCGKVFSQSAGLIQHQR — higher, 2.99
- QKRYHCKPCGKVFSQSAGLIQHQR — lower, 2
- QKRYHCKSCGKVFSQSAGLIQHQR — higher, 2.59
- QKRYHCKMCGKVFSQSAGLIQHQR — higher, 2.6
- QKRYHCKACGKVFSQSAGLIQHQR — higher, 2.75
- QKRYHCKVCGKVFSQSAGLIQHQR — higher, 2.68
- QKRYHCKYCGKVFSQSAGLIQHQR — higher, 2.67
- QKRYHCKTCGKVFSQSAGLIQHQR — higher, 2.94
- QKRYHCKFCGKVFSQSAGLIQHQR — higher, 2.56
- QKRYHCKQCGKVFSQSAGLIQHQR — higher, 2.91
- QKRYHCKDCGKVFSQSAGLIQHQR — higher, 2.93
- QKRYHCKRCGKVFSQSAGLIQHQR — higher, 3.12
- QKRYHCKGCGKVFSQSAGLIQHQR — higher, 2.66
- QKRYHCKHCGKVFSQSAGLIQHQR — higher, 3.81
- QKRYHCKKCGKVFSQSAGLIQHQR — higher, 3.5
- QKRYHCKLCGKVFSQSAGLIQHQR — higher, 2.75
- QKRYHCKWCGKVFSQSAGLIQHQR — higher, 2.71
